The DeepSol protein solubility set

Assay: soluble on expression in E. coli; label from the status in PepcDB or PDB records

| Sequence | soluble on expression in E. coli |
| --- | --- |
| MATAAASVVSSETGDLRAYMAANPAAVIEEVAKQWNVSPHAVIAALPDGMARLGPGDGFVAAMNDIATWGEVTLIVHTEDAIFEFTGEVPRGEISRGYFNLMQPKGLHGHLRHDRCGALAFVERPFMGKASAFVAFLNRDGGIMFKVFVGRDANRELRADQLARFHALAKQFSEEHSALEHHHHHH | not soluble |
| MAPVLGLLENEAKVKSIIRNNNLLEKKFSSFQRQCRDLSRNHALLDSCCSQVKHSATAAEEMSVSDKDVKNHQKKLHSFLAQSTDQVNSTIDKMDFFCSKGNHSLPMEMSVLSITLPYEACIEKSAKKHETMVFSIDEVSSAVQHLENEKVDVEKRQSSTGKLIFQTEKEIMKLKEEIQVNTNLESNIIQLSLEKLSSVKDSSTSENVYKAKLEEEINEARQIYEDALKQDVISQESAMMTQQLESLNELCSDLSDLNKINLTSIEKFPDCNEVCELSDELQTLEKSEAENSESIINLEASLEDIKYQNKKVRKSFDQINQLENAYIVKKEVLTRKKSAIEDVKRQIAESKITLNKLKVTVRAVERSDTPENVESKKEEAFRRLVASSTELPGPESFQRDNVRNVEKSLRFKKWNQRTTSQSSFTSDSTRSIGPIGVHYPGIKLINKDAATPTEVIRKITSELNESATSEDSTFDDDTGTTQDESGLNAFFNSPVSKEQTSMRPQFSMIAHMEKYDTMQAKKNMDKLPDNVRRESEMEHISHNYGRPSEVNRPASVSSKRHDPAASISATSEESILSGTTQDESMLNDFFNPTGTDEKLNDVEFSMTAHVAEFDNRQKAKRAAEQIKKSSSKISGKKEESVADDKSSGNSYVAESEAGFSQGSEENESMDDEDLVAPDDGGLDQTIWDGDD | not soluble |
| MSLDNLALRMRPKTIDQVIGQEHLVGPGKIIRRMVEANRLSSMILYGPPGIGKTSIASAIAGTTKYAFRTFNATVDSKKRLQEISEEAKFSGGLVLLLDEIHRLDKTKQDFLLPLLESGLVIMIGATTENPFFSVTPAIRSRVQIFELEPLSNQDVKEALQIALSNPERGFDFPIELDEDALDFIATSTNGDLRSAFNSLDLAVLSTPENDEGIRHITLDIMENSLQRSYITMDKDGDGHYDVLSALQKSIRGSDVDASLHYTARLIEAGDLPSLARRLTVIAYEDIGLANPEAQIHTVTALDAAQKIGFPEARILIANVVIDLALSPKSNSAYVAMDKALADLKTSGHLPIPRHLRDGHYSGSKELGNAQDYLYPHNYPGNWVKQDYLPEKIRNHHYFQAEDTGKYERALAQRKEAIDRLREGHHHHHH | soluble |
| MGHHHHHHSHLPTTNIGSFPQTTEIRHARASFKKGELSLADYEAAMKKEIEYVVRRQEELDLDVLVHGEAERNDMVEYFGELLDGFAFTKFGWVQSYGSRCVKPPVIYGDVTRPEPMTVRWSQYAQSLTNRVMKGMLTGPVTILQWSFVRNDIPRSTVCKQIGVALSDEVLDLEAAGIKVIQIDEPAIREGLPLKRADWDAYLQWAGEAFRLSSMGVQDDTQIHTHMCYSEFNDILPAIAALDADVITIETSRSDMELLTAFADFKYPNDIGPGVYDIHSPRVPTATEVEHLLRKALNVIPKERLWVNPDCGLKTRGWTETIDQLKVMVDVTKK | not soluble |
| MYGYYSIGELTKEFSITARTLRYYEEEGLLVPCRHGSARFYTQTDRHKLKQILRAKRVKFSLSEISEMLSMVGKPPTDEKKLKELIAGVNKKRADLQQMQRDIDDFLHDLERIEETLFESLAELGVNR | not soluble |
| MHHHHHHSSGVDLGTENLYFQSNAMANPLYHKHIISINDLSRDELELVLRTAASLKKTPQPELLKHKVIASCFFEASTRTRLSFETSIHRLGASVVGFSDSSNTSLGKKGETLADTMSVISTYVDAIVMRHPQEGASRLAAQFSGNVPIVNAGDGANQHPTQTLLDLFTIQETQGRLDNINIAMVGDLKYGRTVHSLTQALAKFNGNHFFFIAPDALAMPAYILQMLEEKEIEYSLHESLEEVVPELDILYMTRVQKERLDPSEYANVKAQFILRSSDLTGARDNLKVLHPLPRIDEITTDVDKTPYAYYFQQAGNGIFARQALLALVLNAELAL | soluble |
| MTFQKHVAHTQPAKLATTPSPPGTATTPSLMSEDDDHRTITESQEKRRSWLERLSAAFSGDPHTLDDLMVILRSAEHHGIIATDTLRMMEGAIAIADLTVGDVMVPRSQMVSLPVESDLQTITKQMVESGHSRFPVHGENKDEVLGILLAKDLLRGVSANHTITNVHELLRPVGMIPESKKLNVLLKEFRLSHNHMAIVVDEYGGVAGLVTIEDILEQIVGDIDDEHDETEDQTNMIAIQADGCYIVDALTPIEDFNERFNAEFPDDDYDTIGGLVTEAIGHLPETGDELTIGRFAFRVAKANARRIHILHVTVLPPNEQNTA | not soluble |
| MLIPSKLSRPVRLDHTVVRERLLAKLSGANNFRLALVTSPAGYGKTTLVSQWAAGKNELGWYSLDEGDNQQERFASYLIAAIQQATGGHCSTSEAMAQKRQYASLTSLFAQLFIELAQWHRPLYLVIDDYHLITNPVIHDAMRFFLRHQPENFTLVVLSRNLPQLGIANLRVRDQLLEIGSQQLAFNHQEAKQFFDRRLSSPIEAAESSRMCDDVAGWATALQLIALSARQNHTSAHHSARRLAGINASHLSDYLVDEVLDNVDVSTRHFLLKSAILRSMNDALIVRVTGEENGQMRLEEIERQGLFLQRMDDTGEWFSYHPLFGSFLRQRCQWELAAELPEIHRAAAESWMEQGFPSEAIHHALAAGDAQMLRDILLNHAWGLFNHSELALLEESLKALPWESLLENPRLVLLQAWLMQSQHRYSEVNTLLARAEQEIKGVMDGTLHAEFNALRAQVAINDGNPEEAERLAKLALDELPLAWFYSRIVATSVHGEVLHCKGDLSQSLSLMQQTEQMARHHDVWHYALWSLIQQSEIQFAQGFLQAAWETQERAFQLIKEQHLEQLPMHEFLVRIRAQLLWAWARLDEAEASARSGIAVLSTFQPQQQLQCLTLLVQCSLARGDLDNARSQLNRLENLLGNGRYHCDWISNADKVRVIYWQLTGDKKSAANWLRHTPKPAFANNHFLQGQWRNIARAQILLGEFEPAEIVLEELNENARSLRLMSDLNCNLLLLNQLYWQSGRKNDAQRVLLDALQLANRTGFISHFVIEGEAMAQQLRQLIQLNTLPEMEQHRAQRILREINQHHRHKFAHFDEGFVERLLNHPDVPELIRTSPLTQREWQVLGLIYSGYSNEQIAGELAVAATTIKTHIRNLYQKLGVAHRQDAVQHAQQLLKMMGYGV | not soluble |
| GSDGDALLKPCKLGDMQCLSSATEQFLEKTSKGIPQYDIWPIDPLVVTSLDVIAPSDAGIVIRFKNLNITGLKNQQISDFQMDTKAKTVLLKTKADLHIVGDIVIELTEQSKSFTGLYTADTNVIGAVRYGYNLKNDDNGVQHFEVQPETFTCESIGEPKITLSSDLSSALEKDSGNNSLEPDMEPLKTLRQAAICKIAEACYISVVHNIRASAKILPASSFFENLN | soluble |
| MVNVAVNGYGTIGKRVADAIIKQPDMKLVGVAKTSPNYEAFIAHRRGIRIYVPQQSIKKFEESGIPVAGTVEDLIKTSDIVVDTTPNGVGAQYKPIYLQLQRNAIFQGGEKAEVADISFSALCNYNEALGKKYIRVVSCNTTALLRTICTVNKVSKVEKVRATIVRRAADQKEVKKGPINSLVPDPATVPSHHAKDVNSVIRNLDIATMAVIAPTTLMHMHFINITLKDKVEKKDILSVLENTPRIVLISSKYDAEATAELVEVARDLKRDRNDIPEVMIFSDSIYVKDDEVMLMYAVHQESIVVPENIDAIRASMKLMSAEDSMRITNESLGILKGYLI | soluble |
| MKVDVDEKTYIITMANDITKLYEENKRNLHYSITDPLTGAYNRKYLNDRFDIFIGDYIVLIDLDNFKMINDYEGHNVGDKILCDFVSLLNKELINSTSIIRLGGDEFIVIFSSDVDKNYVYSQLEALRENFLKVFSKYKYLSFSYGVDTVKRNLKLTIVELDKKMYKNKEKLEHHHHHH | not soluble |
| MSLRPGIKALAEATGYSIATVSKALNGSPMVAPATKALIHRAAADIGYRANARGMALRTGRTCQAAVLMPVTAARDYEWDGVEYTQILSGISQALEGSDYRMSVHVVRNVEDGCEVARRIIDEGLADGLIFSGIRADDPRIDLLDESRFPFVSLGRCRKPLDYAHVDIDNEWAAHAATARLIAGGHRRIALVNPLRHLSYAEDRVDGFLRAFREANLSPSDDLIAEGDLSTHFGRESALGLLDAARPPTAFVCSNESTTLGVLSGLGSRGRRIGVDVDVVAYDDINVSAYFTPPITTFYQPIEVLGRTLGEFLLRRMAGEDARSLKQVFRPRLIERQPDSLGGREGHHHHHH | soluble |
